The target of this experiment is CD122/CD132 complex (UniProt P14784). The experiment is described as follows: cell-based or functional assay.
Sequence of CD122/CD132 complex (P14784 27-551 limits assumed, chain 1 of 2): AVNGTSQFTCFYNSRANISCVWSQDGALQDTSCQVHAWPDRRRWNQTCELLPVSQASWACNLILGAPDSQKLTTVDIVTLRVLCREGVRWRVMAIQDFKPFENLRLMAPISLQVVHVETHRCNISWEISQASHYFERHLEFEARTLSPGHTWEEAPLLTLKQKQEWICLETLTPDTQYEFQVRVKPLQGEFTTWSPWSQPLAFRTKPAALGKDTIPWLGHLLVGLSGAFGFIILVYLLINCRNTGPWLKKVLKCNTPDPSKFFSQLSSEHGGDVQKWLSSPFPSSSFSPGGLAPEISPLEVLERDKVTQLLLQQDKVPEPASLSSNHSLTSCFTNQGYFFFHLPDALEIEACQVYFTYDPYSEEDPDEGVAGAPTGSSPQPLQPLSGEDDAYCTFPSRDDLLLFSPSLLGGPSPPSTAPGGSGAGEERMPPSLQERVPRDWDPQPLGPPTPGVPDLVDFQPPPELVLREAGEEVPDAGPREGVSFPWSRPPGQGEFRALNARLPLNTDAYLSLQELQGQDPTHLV
Sequence of CD122/CD132 complex (P31785 23-369 limits assumed, chain 2 of 2, further chain): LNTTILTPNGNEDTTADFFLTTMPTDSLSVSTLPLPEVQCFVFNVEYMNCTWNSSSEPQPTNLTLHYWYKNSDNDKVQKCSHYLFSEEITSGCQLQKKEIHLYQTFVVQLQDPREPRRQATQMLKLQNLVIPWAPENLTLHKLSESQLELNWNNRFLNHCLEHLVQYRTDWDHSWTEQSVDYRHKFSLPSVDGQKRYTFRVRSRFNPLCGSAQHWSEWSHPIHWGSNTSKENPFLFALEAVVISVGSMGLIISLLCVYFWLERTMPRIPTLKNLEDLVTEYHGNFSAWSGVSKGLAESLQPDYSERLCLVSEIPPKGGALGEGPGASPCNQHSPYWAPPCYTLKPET

For “Recombinant IL-15 (PeproTech 200-15) (from UniProt P40933 49-162) (ligand)”, the EC50, IL2 reporter assay (HEK 293 reporter cells, SEAP, absorbance at 650 nM) is 0.021 nM. The substance “Fc-IL15×Fc-IL15Rα sushi domain fusion protein (Fc fusion)” gave an EC50, IL2 reporter assay (HEK 293 reporter cells, SEAP, absorbance at 650 nM) of 0.066 nM.
